From patent US20250368754A1 (KANAPH THERAPEUTICS, published 2025) come the findings set out here.

The target of experiment [1] is T1, human FAP on HEK293-hFAP cells (human, UniProt Q12884 1-760).
T1 construct: whole, on cells; also called human FAP-expressing cell line
T1 sequence (looked up): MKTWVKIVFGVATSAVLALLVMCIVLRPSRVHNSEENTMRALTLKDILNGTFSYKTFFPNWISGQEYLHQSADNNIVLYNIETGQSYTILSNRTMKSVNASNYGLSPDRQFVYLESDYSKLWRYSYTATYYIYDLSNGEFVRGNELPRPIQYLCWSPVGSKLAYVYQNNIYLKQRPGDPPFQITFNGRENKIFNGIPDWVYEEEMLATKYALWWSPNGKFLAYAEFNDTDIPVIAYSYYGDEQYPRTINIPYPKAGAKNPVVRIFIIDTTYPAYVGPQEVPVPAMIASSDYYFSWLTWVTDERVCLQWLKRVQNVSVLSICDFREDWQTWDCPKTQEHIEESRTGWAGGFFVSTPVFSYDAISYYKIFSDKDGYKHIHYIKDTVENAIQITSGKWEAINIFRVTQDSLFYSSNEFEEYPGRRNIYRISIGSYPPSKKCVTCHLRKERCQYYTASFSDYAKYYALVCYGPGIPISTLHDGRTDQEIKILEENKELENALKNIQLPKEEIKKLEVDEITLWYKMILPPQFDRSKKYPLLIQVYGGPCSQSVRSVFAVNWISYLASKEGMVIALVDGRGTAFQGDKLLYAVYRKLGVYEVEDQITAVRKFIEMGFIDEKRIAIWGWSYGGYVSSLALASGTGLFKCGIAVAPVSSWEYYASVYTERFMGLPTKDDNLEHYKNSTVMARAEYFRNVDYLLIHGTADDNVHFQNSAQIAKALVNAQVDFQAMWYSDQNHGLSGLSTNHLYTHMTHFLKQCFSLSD
Put plainly: flow cytometry on HEK293-hFAP cells, 1 µg protein, anti-human IgG detection. As for the experimental part:
(§1) Specifically, the cell line was prepared by suspending in a FACS buffer solution at 1×10⁵ cells/100 μL, and treated with 1 μg each of T3.10, T3.01, T3.05, T3.06, T3.14, and T3.18. The cells were washed twice with a FACS buffer solution. The cells were stained with an anti-human IgG antibody (Biolegend). The negative control sample was stained only with an anti-human IgG antibody (Biolegend). The expression ratio of the stained cells was measured using BD LSR and analyzed using FlowJo software.

Experiment [2] addresses T1, human FAP on HEK293-hFAP cells. Description: flow cytometry on HEK293-hFAP cells, 1 ug protein per 1x10^5 cells, anti-human IgG detection (axis TMEkine-PE). As to the method:
as §1
For orientation: In flow cytometry, cells or beads pass a laser one at a time.

The next experiment concerns the target human LTβR on A375 cells (human, UniProt P36941 31-435). Description: cell-based or functional assay.
In experiment [3] the target is T2, recombinant human herpes virus entry mediator (HVEM) (human, UniProt Q92956 39-202).
T2 construct: neither construct is described; also called human HVEM; recombinant human HVEM protein (R&D systems)
T2 sequence (looked up): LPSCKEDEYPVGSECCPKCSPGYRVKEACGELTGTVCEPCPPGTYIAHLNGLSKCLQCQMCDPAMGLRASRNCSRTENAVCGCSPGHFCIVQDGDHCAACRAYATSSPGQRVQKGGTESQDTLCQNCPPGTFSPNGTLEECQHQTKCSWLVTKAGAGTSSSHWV
Put plainly: sandwich ELISA: plate coated with recombinant human HVEM 1 ug/mL, fusion protein from 1 nM in serial dilution, detected with biotinylated recombinant human FAP and streptavidin conjugate, OD 450 nm. As to the method:
Considering that LIGHT of the fusion protein must bind to the herpes virus entry mediator (HVEM) for the action, it was confirmed that T3.01 binds to the recombinant human HVEM, as follows: [0370] (i) The recombinant human HVEM protein (R&D systems) was suspended at 1 μg/mL, dispensed in a 96-well immune plate, and treated for 24 hours. [0371] (ii) The wells were washed with a wash solution, and then blocking was performed for 1 hour with 1% BSA (bovine serum albumin, Sigma) solution. [0372] (iii) The wells were washed with a wash solution, and then T3.01, T3.14, T3.16, T3.17, T3.18 and T3.10, or T3.05, T3.06, T3.04, T3.14 and T3.10 were suspended at 1 nM and diluted by serial dilution. The wells were treated with the diluted T3.01, T3.14, T3.16, T3.17, T3.18 and T3.10, or T3.05, T3.06, T3.04, T3.14 and T3.10 for 2 hours. [0373] (iv) The wells were washed with a wash solution, and then treated with the human recombinant FAP-biotin diluted at 0.5 μg/mL for 2 hours. [0374] (v) The wells were washed with a wash solution, and then treated with streptavidin-RP for 20 minutes. [0375] (vi) The wells were washed with a wash solution, and then treated with a substrate solution for 20 minutes. [0376] (vii) The wells were treated with a stop solution, and the absorbance was measured at 450 nm.

A value given as a limit tells only on which side of the number the result lay.

human LTβR on A375 cells, sequence (P36941 31-435): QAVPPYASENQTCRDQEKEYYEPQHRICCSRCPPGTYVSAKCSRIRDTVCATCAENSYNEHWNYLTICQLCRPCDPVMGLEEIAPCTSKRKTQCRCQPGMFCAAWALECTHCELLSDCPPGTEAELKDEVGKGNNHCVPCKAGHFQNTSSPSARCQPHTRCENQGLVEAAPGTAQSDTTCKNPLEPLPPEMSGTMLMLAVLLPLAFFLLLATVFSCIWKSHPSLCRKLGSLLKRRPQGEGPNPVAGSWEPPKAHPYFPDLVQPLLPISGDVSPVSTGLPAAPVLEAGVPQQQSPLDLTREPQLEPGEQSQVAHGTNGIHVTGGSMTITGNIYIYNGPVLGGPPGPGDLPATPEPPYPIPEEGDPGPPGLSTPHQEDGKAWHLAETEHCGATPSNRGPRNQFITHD

B1: T3.06 (anti-hu FAP/hu scLIGHT3(195-198), hu IgG1 DANG) (bispecific antibody)
heavy: QVQLVQSGAEVKKPGASVKVSCKTSRYTFTEYTIHWVRQAPGQRLEWIGGINPNNGIPNYNQKFKGRVTITVDTSASTAYMELSSLRSEDTAVYYCARRRIAYGYDEGHAMDYWGQGTLVTVSSASTKGPSVFPLAPSSKSTSGGTAALGCLVKDYFPEPVTVSWNSGALTSGVHTFPAVLQSSGLYSLSSVVTVPSSSLGTQTYICNVNHKPSNTKVDKKVEPKSCDKTHTCPPCPAPELLGGPSVFLFPPKPKDTLMISRTPEVTCVVVAVSHEDPEVKFNWYVDGVEVHNAKTKPREEQYGSTYRVVSVLTVLHQDWLNGKEYKCKVSNKALPAPIEKTISKAKGQPREPQVYTLPPSRDELTKNQVSLWCLVKGFYPSDIAVEWESNGQPENNYKTTPPVLDSDGSFFLYSKLTVDKSRWQQGNVFSCSVMHEALHNHYTQKSLSLSPGK
light: not shown
chain: not shown
notes: Knob-into-hole
With B1, in experiment [1], the “percent of cells bound” value was not below 99%. The “percent of cells in the positive gate” value in experiment [2] amounted to 100%.

B2: T3.15 (anti-hu FAP/hu scLIGHT-LIGHT(L118K, G119E)2, hu IgG1 DANG) (bispecific antibody)
heavy: QVQLVQSGAEVKKPGASVKVSCKTSRYTFTEYTIHWVRQAPGQRLEWIGGINPNNGIPNYNQKFKGRVTITVDTSASTAYMELSSLRSEDTAVYYCARRRIAYGYDEGHAMDYWGQGTLVTVSSASTKGPSVFPLAPSSKSTSGGTAALGCLVKDYFPEPVTVSWNSGALTSGVHTFPAVLQSSGLYSLSSVVTVPSSSLGTQTYICNVNHKPSNTKVDKKVEPKSCDKTHTCPPCPAPELLGGPSVFLFPPKPKDTLMISRTPEVTCVVVAVSHEDPEVKFNWYVDGVEVHNAKTKPREEQYGSTYRVVSVLTVLHQDWLNGKEYKCKVSNKALPAPIEKTISKAKGQPREPQVYTLPPSRDELTKNQVSLWCLVKGFYPSDIAVEWESNGQPENNYKTTPPVLDSDGSFFLYSKLTVDKSRWQQGNVFSCSVMHEALHNHYTQKSLSLSPGK
light: not shown
chain: not shown
For the molecule B2, the “IL-8 secretion of A375 cells, EC50 (FIG. 15a)” value with human LTβR on A375 cells came out at 3.79 nM.

B3: T3.16 (anti-hu FAP/hu scLIGHT(226-231)-LTb2, hu IgG1 DANG) (bispecific antibody)
heavy: QVQLVQSGAEVKKPGASVKVSCKTSRYTFTEYTIHWVRQAPGQRLEWIGGINPNNGIPNYNQKFKGRVTITVDTSASTAYMELSSLRSEDTAVYYCARRRIAYGYDEGHAMDYWGQGTLVTVSSASTKGPSVFPLAPSSKSTSGGTAALGCLVKDYFPEPVTVSWNSGALTSGVHTFPAVLQSSGLYSLSSVVTVPSSSLGTQTYICNVNHKPSNTKVDKKVEPKSCDKTHTCPPCPAPELLGGPSVFLFPPKPKDTLMISRTPEVTCVVVAVSHEDPEVKFNWYVDGVEVHNAKTKPREEQYGSTYRVVSVLTVLHQDWLNGKEYKCKVSNKALPAPIEKTISKAKGQPREPQVYTLPPSRDELTKNQVSLWCLVKGFYPSDIAVEWESNGQPENNYKTTPPVLDSDGSFFLYSKLTVDKSRWQQGNVFSCSVMHEALHNHYTQKSLSLSPGK
light: not shown
chain: not shown
notes: Knob-into-hole
Consider B3, for which the binding result in experiment [3] is listed as “no binding (tested: 1000 pM)”.

B4: T3.17 (anti-hu FAP/hu scLIGHT(195-198)-LTb2, hu IgG1 DANG) (bispecific antibody)
heavy: QVQLVQSGAEVKKPGASVKVSCKTSRYTFTEYTIHWVRQAPGQRLEWIGGINPNNGIPNYNQKFKGRVTITVDTSASTAYMELSSLRSEDTAVYYCARRRIAYGYDEGHAMDYWGQGTLVTVSSASTKGPSVFPLAPSSKSTSGGTAALGCLVKDYFPEPVTVSWNSGALTSGVHTFPAVLQSSGLYSLSSVVTVPSSSLGTQTYICNVNHKPSNTKVDKKVEPKSCDKTHTCPPCPAPELLGGPSVFLFPPKPKDTLMISRTPEVTCVVVAVSHEDPEVKFNWYVDGVEVHNAKTKPREEQYGSTYRVVSVLTVLHQDWLNGKEYKCKVSNKALPAPIEKTISKAKGQPREPQVYTLPPSRDELTKNQVSLWCLVKGFYPSDIAVEWESNGQPENNYKTTPPVLDSDGSFFLYSKLTVDKSRWQQGNVFSCSVMHEALHNHYTQKSLSLSPGK
light: not shown
chain: not shown
notes: Knob-into-hole
As for B4, the binding result in experiment [3] is reported as “no binding (tested: 1000 pM)”.
